Assay results reported in patent publication US20240398963A1 (priority 2021, published 2024).

Type: physicochemical
Details: 10 mM PBS buffer (pH=7.4), 37° C., 100 rpm shaker; free drug by HPLC, average release per day
Procedure: The drug release and stability experiments were run using the test compounds. About 2.5±1.0 mg/mL (with regard to conjugate) solution of each test compound was prepared with 10 mM PBS buffer (pH=7.4) in Millipore Amicon® Ultra-0.5 ml 30 k Ultrafiltration centrifuge tube. The solution was kept swelling for 1 h at room temperature and then placed in a shaker at 100 rpm, 37° C. for continuous experiment. At the same time point of each day, samples were centrifuged at 10000 rpm for 1 h. The aliquot was transferred to HPLC vial for analysis. An 0.4 mL of 10 mM PBS buffer was added into the centrifuge tube and continue the experiment.
For the HPLC analysis at each time point, the peak areas of all relevant peaks from the chromatograms were retrieved and the concentration of free drug was calculated. Average release of free drug was calculated based on the sum of free drug and numbers of experiment days. The computing equation is as below.
The sample degradation rate was calculated based on the concentration and degree of substitution (NMR) for conjugated drug with regard to the initial starting point of the experiment (at t=0). The computing equation is as below.

| Substance | Release rate [%/day] |
| --- | --- |
| Conjugate of CS (Chondroitin sulfate) and 2-aminopropyl (2-((6αS,6βR,7S,8αS,8βS,11αR,12αS,12βS)-6β-fluoro-7-hydroxy-6α,8α,10,10-tetramethyl-4-oxo-1,2,4,6α,6β,7,8,8α,11α,12,12α,12β-dodecahydro-8βH-naphtho[2′,1′:4,5]indeno[1,2-d][1,3]dioxol-8β-yl)-2-oxoethyl) carbonate [Example 53] | 1.49 |
| Conjugate of CS and 2-(2-(2-(2-aminoethoxy)ethoxy)ethoxy)ethyl (2-((6αS,6βR,7S,8αS,8βS,11αR,12αS,12βS)-6β-fluoro-7-hydroxy-6α,8α,10,10-tetramethyl-4-oxo-1,2,4,6α,6β,7,8,8α,11α,12,12α,12β-dodecahydro-8βH-naphtho[2′,1′:4,5]indeno[1,2-d][1,3]dioxol-8β-yl)-2-oxoethyl) carbonate [Example 55] | 1.20 |
| Conjugate of CS and 2-((6S,8S,9S,10R,11S,13S,14S,17R)-11,17-dihydroxy-6,10,13-trimethyl-3-oxo-6,7,8,9,10,11,12,13,14,15,16,17-dodecahydro-3H-cyclopenta[a]phenanthren-17-yl)-2-oxoethyl 4-aminobutanoate [Example 43] | 1.07 |
| Conjugate of CS and 2-((6αS,6βR,7S,8αS,8βS,11αR,12αS,12βS)-6β-fluoro-7-hydroxy-6α,8α,10,10-tetramethyl-4-oxo-1,2,4,6α,6β,7,8,8α,11α,12,12α,12β-dodecahydro-8βH-naphtho[2′,1′:4,5]indeno[1,2-d][1,3]dioxol-8β-yl)-2-oxoethyl 2,5-diazabicyclo[2.2.1]heptane-2-carboxylate [Example 59] | 0.02 |
| Conjugate of CS and 2-((6αS,6βR,7S,8αS,8βS,11αR,12αS,12βS)-6β-fluoro-7-hydroxy-6α,8α,10,10-tetramethyl-4-oxo-1,2,4,6α,6β,7,8,8α,11α,12,12α,12β-dodecahydro-8βH-naphtho[2′,1′:4,5]indeno[1,2-d][1,3]dioxol-8β-yl)-2-oxoethyl 7-azaspiro[3.5]nonane-2-carboxylate [Example 49] | 0.42 |
| Conjugate of CS and 2-((6αS,6βR,7S,8αS,8βS,11αR,12αS,12βS)-6β-fluoro-7-hydroxy-6α,8α,10,10-tetramethyl-4-oxo-1,2,4,6α,6β,7,8,8α,11α,12,12α,12β-dodecahydro-8βH-naphtho[2′,1′:4,5]indeno[1,2-d][1,3]dioxol-8β-yl)-2-oxoethyl 14-amino-3,6,9,12-tetraoxatetradecanoate [Example 51] | 7.21 |
| Conjugate of CS and 2-((6αS,6βR,7S,8αS,8βS,11αR,12αS,12βS)-6β-fluoro-7-hydroxy-6α,8α,10,10-tetramethyl-4-oxo-1,2,4,6α,6β,7,8,8α,11α,12,12α,12β-dodecahydro-8βH-naphtho[2′,1′:4,5]indeno[1,2-d][1,3]dioxol-8β-yl)-2-oxoethyl piperazine-1-carboxylate [Example 57] | 0.23 |
| Conjugate of CS and 2-((8S,9R,10S,11S,13S,14S,16R,17R)-9-fluoro-11,17-dihydroxy-10,13,16-trimethyl-3-oxo-6,7,8,9,10,11,12,13,14,15,16,17-dodecahydro-3H-cyclopenta[a]phenanthren-17-yl)-2-oxoethyl 4-aminobutanoate [Example 45] | 0.40 |
| Conjugate of CS and 2-((8S,9R,10S,11S,13S,14S,16S,17R)-9-fluoro-11,17-dihydroxy-10,13,16-trimethyl-3-oxo-6,7,8,9,10,11,12,13,14,15,16,17-dodecahydro-3H-cyclopenta[a]phenanthren-17-yl)-2-oxoethyl 4-aminobutanoate [Example 47] | 1.24 |
| Conjugate of CS and 2-((8S,9S,10R,11S,13S,14S,17R)-11,17-dihydroxy-10,13-dimethyl-3-oxo-2,3,6,7,8,9,10,11,12,13,14,15,16,17-tetradecahydro-1H-cyclopenta[a]phenanthren-17-yl)-2-oxoethyl 4-aminobutanoate [Example 39] | 0.71 |
| Conjugate of CS and 2-((8S,9S,10R,13S,14S,17R)-17-hydroxy-10,13-dimethyl-3,11-dioxo-2,3,6,7,8,9,10,11,12,13,14,15,16,17-tetradecahydro-1H-cyclopenta[a]phenanthren-17-yl)-2-oxoethyl 4-aminobutanoate [Example 41] | 1.79 |
| Conjugate of CS and 2-((8S,9S,10R,13S,14S,17R)-17-hydroxy-10,13-dimethyl-3,11-dioxo-6,7,8,9,10,11,12,13,14,15,16,17-dodecahydro-3H-cyclopenta[a]phenanthren-17-yl)-2-oxoethyl 4-aminobutanoate [Example 35] | 1.44 |
| Conjugate of CS and 4-aminobutyl (2-((6S,8S,9S,10R,11S,13S,14S,17R)-11,17-dihydroxy-6,10,13-trimethyl-3-oxo-6,7,8,9,10,11,12,13,14,15,16,17-dodecahydro-3H-cyclopenta[a]phenanthren-17-yl)-2-oxoethyl) carbonate [Example 69] | 4.62 |
| Conjugate of CS and 4-aminobutyl (2-((8S,9R,10S,11S,13S,14S,16R,17R)-9-fluoro-11,17-dihydroxy-10,13,16-trimethyl-3-oxo-6,7,8,9,10,11,12,13,14,15,16,17-dodecahydro-3H-cyclopenta[a]phenanthren-17-yl)-2-oxoethyl) carbonate [Example 71] | 1.55 |
| Conjugate of CS and 4-aminobutyl (2-((8S,9R,10S,11S,13S,14S,16S,17R)-9-fluoro-11,17-dihydroxy-10,13,16-trimethyl-3-oxo-6,7,8,9,10,11,12,13,14,15,16,17-dodecahydro-3H-cyclopenta[a]phenanthren-17-yl)-2-oxoethyl) carbonate [Example 73] | 13.44 |
| Conjugate of CS and 4-aminobutyl (2-((8S,9S,10R,11S,13S,14S,17R)-11,17-dihydroxy-10,13-dimethyl-3-oxo-2,3,6,7,8,9,10,11,12,13,14,15,16,17-tetradecahydro-1H-cyclopenta[a]phenanthren-17-yl)-2-oxoethyl) carbonate [Example 65] | 7.52 |
| Conjugate of CS and 4-aminobutyl (2-((8S,9S,10R,11S,13S,14S,17R)-11,17-dihydroxy-10,13-dimethyl-3-oxo-6,7,8,9,10,11,12,13,14,15,16,17-dodecahydro-3H-cyclopenta[a]phenanthren-17-yl)-2-oxoethyl) carbonate [Example 63] | 0.05 |
| Conjugate of CS and 4-aminobutyl (2-((8S,9S,10R,13S,14S,17R)-17-hydroxy-10,13-dimethyl-3,11-dioxo-2,3,6,7,8,9,10,11,12,13,14,15,16,17-tetradecahydro-1H-cyclopenta[a]phenanthren-17-yl)-2-oxoethyl) carbonate [Example 67] | 5.91 |
| Conjugate of CS and 4-aminobutyl (2-((8S,9S,10R,13S,14S,17R)-17-hydroxy-10,13-dimethyl-3,11-dioxo-6,7,8,9,10,11,12,13,14,15,16,17-dodecahydro-3H-cyclopenta[a]phenanthren-17-yl)-2-oxoethyl) carbonate [Example 61] | 7.26 |
